14 molecules from patent US11965039B2, “Compstatin analogues and their medical uses” (priority 2018, dated 2024) can be followed below.

Starred links: 1 amine or outer side, 2 acyl side, 3 side chain; linkers in the order of their positions; H or OH if unused. Positions of bridges follow the written chain, without caps; N, C: chain ends. Non-standard residues stand in square brackets, D forms with d. Groups on a side chain read outwards from the residue. *: point of attachment. X1 = K(γGlu-G-γGlu-17-carboxy-heptadecanoyl), O=C(O)CCCCCCCCCCCCCCCCC(=O)N[C@@H](CCC(=O)NCC(=O)N[C@@H](CCC(=O)NCCCC[C@H](N[*:1])C(=O)[*:2])C(=O)O)C(=O)O; Trp(1-Me) = Cn1cc(C[C@H](N)C(=O)O)c2ccccc21; C18 diacid = O=C(O)CCCCCCCCCCCCCCCCC(=O)*; C16 diacid = O=C(O)CCCCCCCCCCCCCCC(=O)*; γGlu = O=C(O)[C@H](CCC(=O)[*:2])N[*:1]; AEEA = NCCOCCOCC(=O)O; Sar = CNCC(=O)O

B1: Compound 133 (peptide)
peptide: Ac-SEFCI[Trp(1-Me)]QDWGEHRCTEK[γGlu]GGGK([γGlu-Gly-γGlu-C18 diacid])-NH2
modifications: disulfide 4-14
SMILES: CC[C@H](C)[C@@H]1NC(=O)[C@@H](NC(=O)[C@H](Cc2ccccc2)NC(=O)[C@H](CCC(=O)O)NC(=O)[C@H](CO)NC(C)=O)CSSC[C@@H](C(=O)N[C@H](C(=O)N[C@@H](CCC(=O)O)C(=O)N[C@@H](CCCCN)C(=O)N[C@@H](CCC(=O)NCC(=O)NCC(=O)NCC(=O)N[C@@H](CCCCNC(=O)CC[C@H](NC(=O)CNC(=O)CC[C@H](NC(=O)CCCCCCCCCCCCCCCCC(=O)O)C(=O)O)C(=O)O)C(N)=O)C(=O)O)[C@@H](C)O)NC(=O)[C@H](CCCNC(=N)N)NC(=O)[C@H](Cc2c[nH]cn2)NC(=O)[C@H](CCC(=O)O)NC(=O)CNC(=O)[C@H](Cc2c[nH]c3ccccc23)NC(=O)[C@H](CC(=O)O)NC(=O)[C@H](CCC(N)=O)NC(=O)[C@H](Cc2cn(C)c3ccccc23)NC1=O
B2: Compound 115 (peptide)
peptide: Ac-SEYCI[Trp(1-Me)]QDWGEHRC[Sar]EGKK([γGlu-Gly-γGlu-C18 diacid])-NH2
modifications: disulfide 4-14
SMILES: CC[C@H](C)[C@@H]1NC(=O)[C@@H](NC(=O)[C@H](Cc2ccc(O)cc2)NC(=O)[C@H](CCC(=O)O)NC(=O)[C@H](CO)NC(C)=O)CSSC[C@@H](C(=O)N(C)CC(=O)N[C@@H](CCC(=O)O)C(=O)NCC(=O)N[C@@H](CCCCN)C(=O)N[C@@H](CCCCNC(=O)CC[C@H](NC(=O)CNC(=O)CC[C@H](NC(=O)CCCCCCCCCCCCCCCCC(=O)O)C(=O)O)C(=O)O)C(N)=O)NC(=O)[C@H](CCCNC(=N)N)NC(=O)[C@H](Cc2c[nH]cn2)NC(=O)[C@H](CCC(=O)O)NC(=O)CNC(=O)[C@H](Cc2c[nH]c3ccccc23)NC(=O)[C@H](CC(=O)O)NC(=O)[C@H](CCC(N)=O)NC(=O)[C@H](Cc2cn(C)c3ccccc23)NC1=O
B3: Compound 129 (peptide)
peptide: Ac-SEFCI[Trp(1-Me)]QDWGEHRC[Sar]EGEGGGK([γGlu-Gly-γGlu-C18 diacid])-NH2
modifications: disulfide 4-14
SMILES: CC[C@H](C)[C@@H]1NC(=O)[C@@H](NC(=O)[C@H](Cc2ccccc2)NC(=O)[C@H](CCC(=O)O)NC(=O)[C@H](CO)NC(C)=O)CSSC[C@@H](C(=O)N(C)CC(=O)N[C@@H](CCC(=O)O)C(=O)NCC(=O)N[C@@H](CCC(=O)O)C(=O)NCC(=O)NCC(=O)NCC(=O)N[C@@H](CCCCNC(=O)CC[C@H](NC(=O)CNC(=O)CC[C@H](NC(=O)CCCCCCCCCCCCCCCCC(=O)O)C(=O)O)C(=O)O)C(N)=O)NC(=O)[C@H](CCCNC(=N)N)NC(=O)[C@H](Cc2c[nH]cn2)NC(=O)[C@H](CCC(=O)O)NC(=O)CNC(=O)[C@H](Cc2c[nH]c3ccccc23)NC(=O)[C@H](CC(=O)O)NC(=O)[C@H](CCC(N)=O)NC(=O)[C@H](Cc2cn(C)c3ccccc23)NC1=O
B4: Compound 132 (peptide)
peptide: Ac-SEFCI[Trp(1-Me)]QDWGEHRC[Sar]EK[γGlu]GGGK([γGlu-Gly-γGlu-C18 diacid])-NH2
modifications: disulfide 4-14
SMILES: CC[C@H](C)[C@@H]1NC(=O)[C@@H](NC(=O)[C@H](Cc2ccccc2)NC(=O)[C@H](CCC(=O)O)NC(=O)[C@H](CO)NC(C)=O)CSSC[C@@H](C(=O)N(C)CC(=O)N[C@@H](CCC(=O)O)C(=O)N[C@@H](CCCCN)C(=O)N[C@@H](CCC(=O)NCC(=O)NCC(=O)NCC(=O)N[C@@H](CCCCNC(=O)CC[C@H](NC(=O)CNC(=O)CC[C@H](NC(=O)CCCCCCCCCCCCCCCCC(=O)O)C(=O)O)C(=O)O)C(N)=O)C(=O)O)NC(=O)[C@H](CCCNC(=N)N)NC(=O)[C@H](Cc2c[nH]cn2)NC(=O)[C@H](CCC(=O)O)NC(=O)CNC(=O)[C@H](Cc2c[nH]c3ccccc23)NC(=O)[C@H](CC(=O)O)NC(=O)[C@H](CCC(N)=O)NC(=O)[C@H](Cc2cn(C)c3ccccc23)NC1=O
B5: Compound 8 (peptide)
peptide: Ac-ICIWQKWGAHRCTGAES-NH2
modifications: disulfide 2-12
SMILES: CC[C@H](C)[C@H](NC(C)=O)C(=O)N[C@H]1CSSC[C@@H](C(=O)N[C@H](C(=O)NCC(=O)N[C@@H](C)C(=O)N[C@@H](CCC(=O)O)C(=O)N[C@@H](CO)C(N)=O)[C@@H](C)O)NC(=O)[C@H](CCCNC(=N)N)NC(=O)[C@H](Cc2c[nH]cn2)NC(=O)[C@H](C)NC(=O)CNC(=O)[C@H](Cc2c[nH]c3ccccc23)NC(=O)[C@H](CCCCN)NC(=O)[C@H](CCC(N)=O)NC(=O)[C@H](Cc2c[nH]c3ccccc23)NC(=O)[C@H]([C@@H](C)CC)NC1=O
B6: Compound 131 (peptide)
peptide: Ac-SEFCI[Trp(1-Me)]QDWGEHRCTEGEGGGK([γGlu-Gly-γGlu-C16 diacid])-NH2
modifications: disulfide 4-14
SMILES: CC[C@H](C)[C@@H]1NC(=O)[C@@H](NC(=O)[C@H](Cc2ccccc2)NC(=O)[C@H](CCC(=O)O)NC(=O)[C@H](CO)NC(C)=O)CSSC[C@@H](C(=O)N[C@H](C(=O)N[C@@H](CCC(=O)O)C(=O)NCC(=O)N[C@@H](CCC(=O)O)C(=O)NCC(=O)NCC(=O)NCC(=O)N[C@@H](CCCCNC(=O)CC[C@H](NC(=O)CNC(=O)CC[C@H](NC(=O)CCCCCCCCCCCCCCC(=O)O)C(=O)O)C(=O)O)C(N)=O)[C@@H](C)O)NC(=O)[C@H](CCCNC(=N)N)NC(=O)[C@H](Cc2c[nH]cn2)NC(=O)[C@H](CCC(=O)O)NC(=O)CNC(=O)[C@H](Cc2c[nH]c3ccccc23)NC(=O)[C@H](CC(=O)O)NC(=O)[C@H](CCC(N)=O)NC(=O)[C@H](Cc2cn(C)c3ccccc23)NC1=O
B7: Compound 138 (peptide)
peptide: Ac-SEFCI[Trp(1-Me)]QDWGEHRC[Sar]EGE-{AEEA-X1-NH2}
modifications: disulfide 4-14
SMILES: CC[C@H](C)[C@@H]1NC(=O)[C@@H](NC(=O)[C@H](Cc2ccccc2)NC(=O)[C@H](CCC(=O)O)NC(=O)[C@H](CO)NC(C)=O)CSSC[C@@H](C(=O)N(C)CC(=O)N[C@@H](CCC(=O)O)C(=O)NCC(=O)N[C@@H](CCC(=O)O)C(=O)NCCOCCOCC(=O)N[C@@H](CCCCNC(=O)CC[C@H](NC(=O)CNC(=O)CC[C@H](NC(=O)CCCCCCCCCCCCCCCCC(=O)O)C(=O)O)C(=O)O)C(N)=O)NC(=O)[C@H](CCCNC(=N)N)NC(=O)[C@H](Cc2c[nH]cn2)NC(=O)[C@H](CCC(=O)O)NC(=O)CNC(=O)[C@H](Cc2c[nH]c3ccccc23)NC(=O)[C@H](CC(=O)O)NC(=O)[C@H](CCC(N)=O)NC(=O)[C@H](Cc2cn(C)c3ccccc23)NC1=O
B8: Compound 7 (peptide)
peptide: Ac-ICIWQKWGEHRCT-NH2
modifications: disulfide 2-12
SMILES: CC[C@H](C)[C@H](NC(C)=O)C(=O)N[C@H]1CSSC[C@@H](C(=O)N[C@H](C(N)=O)[C@@H](C)O)NC(=O)[C@H](CCCNC(=N)N)NC(=O)[C@H](Cc2c[nH]cn2)NC(=O)[C@H](CCC(=O)O)NC(=O)CNC(=O)[C@H](Cc2c[nH]c3ccccc23)NC(=O)[C@H](CCCCN)NC(=O)[C@H](CCC(N)=O)NC(=O)[C@H](Cc2c[nH]c3ccccc23)NC(=O)[C@H]([C@@H](C)CC)NC1=O
B9: Compound 114 (peptide)
peptide: Ac-SEYCI[Trp(1-Me)]QDWGEHRC[Sar]EGEK([γGlu-Gly-γGlu-C18 diacid])-NH2
modifications: disulfide 4-14
SMILES: CC[C@H](C)[C@@H]1NC(=O)[C@@H](NC(=O)[C@H](Cc2ccc(O)cc2)NC(=O)[C@H](CCC(=O)O)NC(=O)[C@H](CO)NC(C)=O)CSSC[C@@H](C(=O)N(C)CC(=O)N[C@@H](CCC(=O)O)C(=O)NCC(=O)N[C@@H](CCC(=O)O)C(=O)N[C@@H](CCCCNC(=O)CC[C@H](NC(=O)CNC(=O)CC[C@H](NC(=O)CCCCCCCCCCCCCCCCC(=O)O)C(=O)O)C(=O)O)C(N)=O)NC(=O)[C@H](CCCNC(=N)N)NC(=O)[C@H](Cc2c[nH]cn2)NC(=O)[C@H](CCC(=O)O)NC(=O)CNC(=O)[C@H](Cc2c[nH]c3ccccc23)NC(=O)[C@H](CC(=O)O)NC(=O)[C@H](CCC(N)=O)NC(=O)[C@H](Cc2cn(C)c3ccccc23)NC1=O
B10: Compound 134 (peptide)
peptide: Ac-EFCI[Trp(1-Me)]QDWGEHRCEGEK([γGlu-Gly-γGlu-C18 diacid])-NH2
modifications: disulfide 3-13
SMILES: CC[C@H](C)[C@@H]1NC(=O)[C@@H](NC(=O)[C@H](Cc2ccccc2)NC(=O)[C@H](CCC(=O)O)NC(C)=O)CSSC[C@@H](C(=O)N[C@@H](CCC(=O)O)C(=O)NCC(=O)N[C@@H](CCC(=O)O)C(=O)N[C@@H](CCCCNC(=O)CC[C@H](NC(=O)CNC(=O)CC[C@H](NC(=O)CCCCCCCCCCCCCCCCC(=O)O)C(=O)O)C(=O)O)C(N)=O)NC(=O)[C@H](CCCNC(=N)N)NC(=O)[C@H](Cc2c[nH]cn2)NC(=O)[C@H](CCC(=O)O)NC(=O)CNC(=O)[C@H](Cc2c[nH]c3ccccc23)NC(=O)[C@H](CC(=O)O)NC(=O)[C@H](CCC(N)=O)NC(=O)[C@H](Cc2cn(C)c3ccccc23)NC1=O

Chain of Human C3 (Complement tech cat #A113c) (P01024 23-1663 limits assumed): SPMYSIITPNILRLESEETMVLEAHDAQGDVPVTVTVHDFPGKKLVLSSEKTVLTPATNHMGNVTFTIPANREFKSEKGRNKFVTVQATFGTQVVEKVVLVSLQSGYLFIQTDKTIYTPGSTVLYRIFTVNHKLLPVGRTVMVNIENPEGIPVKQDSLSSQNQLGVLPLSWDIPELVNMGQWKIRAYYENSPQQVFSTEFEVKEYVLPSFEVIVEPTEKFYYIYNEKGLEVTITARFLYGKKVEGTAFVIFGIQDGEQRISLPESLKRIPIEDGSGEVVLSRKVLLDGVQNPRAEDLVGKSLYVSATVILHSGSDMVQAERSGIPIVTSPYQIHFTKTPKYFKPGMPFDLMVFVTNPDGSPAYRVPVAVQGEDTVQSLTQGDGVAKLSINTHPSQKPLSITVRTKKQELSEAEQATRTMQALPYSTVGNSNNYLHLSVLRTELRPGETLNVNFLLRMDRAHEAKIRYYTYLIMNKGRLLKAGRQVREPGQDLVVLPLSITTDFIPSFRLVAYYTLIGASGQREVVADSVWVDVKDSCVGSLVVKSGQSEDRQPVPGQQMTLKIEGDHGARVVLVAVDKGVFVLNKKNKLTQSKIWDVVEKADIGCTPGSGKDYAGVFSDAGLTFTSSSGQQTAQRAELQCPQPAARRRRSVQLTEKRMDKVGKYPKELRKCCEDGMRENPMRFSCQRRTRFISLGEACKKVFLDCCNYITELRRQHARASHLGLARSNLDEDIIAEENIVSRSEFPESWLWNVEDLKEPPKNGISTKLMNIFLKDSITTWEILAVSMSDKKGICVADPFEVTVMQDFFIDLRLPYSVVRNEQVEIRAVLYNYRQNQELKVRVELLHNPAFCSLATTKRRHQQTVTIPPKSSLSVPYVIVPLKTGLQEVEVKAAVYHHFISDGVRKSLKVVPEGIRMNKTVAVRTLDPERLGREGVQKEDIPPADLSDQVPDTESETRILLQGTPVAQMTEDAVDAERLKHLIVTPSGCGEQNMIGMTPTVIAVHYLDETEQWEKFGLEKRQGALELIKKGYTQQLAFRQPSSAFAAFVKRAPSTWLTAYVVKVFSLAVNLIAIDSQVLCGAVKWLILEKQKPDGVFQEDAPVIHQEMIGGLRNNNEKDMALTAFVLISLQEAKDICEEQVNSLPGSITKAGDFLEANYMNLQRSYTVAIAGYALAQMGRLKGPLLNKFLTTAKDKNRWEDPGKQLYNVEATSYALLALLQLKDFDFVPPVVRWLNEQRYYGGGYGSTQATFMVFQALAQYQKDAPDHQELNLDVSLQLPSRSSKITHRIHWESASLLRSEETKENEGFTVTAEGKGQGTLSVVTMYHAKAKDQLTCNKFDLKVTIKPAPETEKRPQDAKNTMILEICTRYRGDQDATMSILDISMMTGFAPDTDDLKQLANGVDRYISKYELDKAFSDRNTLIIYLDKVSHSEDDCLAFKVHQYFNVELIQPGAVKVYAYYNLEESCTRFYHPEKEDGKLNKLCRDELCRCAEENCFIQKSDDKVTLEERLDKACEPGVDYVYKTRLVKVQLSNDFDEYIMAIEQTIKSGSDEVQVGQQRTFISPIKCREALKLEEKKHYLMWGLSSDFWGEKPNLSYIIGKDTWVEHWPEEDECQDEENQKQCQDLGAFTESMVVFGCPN

This test has as its target Human C3 (Complement tech cat #A113c) (human, UniProt P01024 23-1663). Put plainly: cell-based or functional assay.
Consider Ac-SEFCI[Trp(1-Me)]QDWGEHRCTEGE-{8‑aminooctanoyl-X1-NH2} (disulfide 4-14) [Compound 136], for which the “inhibition of hemolysis IC50” value was less than 100 nM.
The value for B1 was less than 100 nM.
Turning to B2, the “inhibition of hemolysis IC50” value is less than 250 nM.
In the case of B3, the “inhibition of hemolysis IC50” value is less than 100 nM.
On to B4, for which the “inhibition of hemolysis IC50” value was less than 100 nM.
Regarding B5, the “inhibition of hemolysis IC50” value was less than 500 nM.
The value for B6 was less than 100 nM.
The value for Ac-SEYCI[Trp(1-Me)]QDWGEHRC[Sar]EGEK([γGlu-Lys-γGlu-C18 diacid])-NH2 (disulfide 4-14) [Compound 116] was less than 500 nM; that for B7 was less than 100 nM.
The same measure for Ac-SEFCI[Trp(1-Me)]QDWGEHRCTGAESK([γGlu-Gly-γGlu-15‑carboxy‑hexadecanoyl])-NH2 (disulfide 4-14) [Compound 135]: less than 100 nM; for B8: less than 1000 nM.
Regarding Ac-SEFCI[Trp(1-Me)]QDWGEHRCTEGE-{8‑aminooctanoyl-Glu-X1-NH2} (disulfide 4-14) [Compound 137], the “inhibition of hemolysis IC50” value was less than 100 nM.
The value for B9 was less than 500 nM; that for B10 was less than 100 nM.
